As a reminder, the Kd is a measure of binding affinity in units of concentration. High values mean a looser complex, low ones a tighter complex. What is called koff is the first-order rate constant of dissociation. High values mean fast dissociation, low ones slow dissociation. A word on the kon: it is the rate constant with which the complex forms. A low value points to slow association.

Assay [1] addresses T1, PACAP38 (human, not fully specified).
T1 peptide: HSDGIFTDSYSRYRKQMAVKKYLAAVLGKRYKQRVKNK
Kind of assay: cell-based or functional assay.

Assay [2] concerns the target T1, PACAP38. Kind of assay: SPR (Biacore), 37 C, antibody captured via anti-human Fc, peptide analyte. On the procedure: (§1) In brief, antibody and peptide interaction was determined on a Biacore S200 (GE Healthcare) by method previously described (Andreu and Gomes 2002). An anti-Human IgG Fc capture antibody was immobilized on a CM5 biosensor chip via standard amine coupling. Anti-PACAP antibodies were injected and captured to 200 to 400 response units (RU),). PACAP38, PACAP27 and VIP were diluted in HBS-EP+ buffer containing 0.1% w/v BSA (Bovostar, catalog number BSAS1.0) and 0.15 M NaCl (Sigma-Aldrich catalog number S7653), pH 7.4. Binding kinetics of antibodies were determined by injection of two-fold serial dilutions of PACAPs (12 nm to 0 nM) and VIP (1200 nM to 0 nM) in running buffer at 37° C. with a flow rate of 40 μL/min for 2 min followed by a dissociation for 10 minutes. For subsequent cycles, the chip was regenerated using 0.85% phosphoric acid. Data was analysed with the Biacore S200 Evaluation Software (ver 1.0). Association rate (kₐ) and dissociation rate (kd) constants were determined using a simple one-to-one Langmuir binding model and used to calculate the equilibrium dissociation constant (KD).
For orientation: SPR reads the build-up and loss of mass on a sensor chip optically.

Assay [3] concerns the target T1, PACAP38. Kind of assay: cell-based or functional assay.
In assay [4] the target is T1, PACAP38. Description: SPR (Biacore S200) off-rate ranking, antibody captured from supernatant, single injection of 33.3 nM PACAP38. As to the method: as §1, with “Binding kinetics of antibodies were determined by injection of two-fold serial dilutions of PACAPs (12 nm to 0 nM) and VIP (1200 nM to 0 nM) in running buffer at 37° C. with a flow rate of 40 μL/min for 2 min followed by a dissociation for 10 minutes.” left out

For assay [5], the target named is T1, PACAP38. Kind of assay: SPR (Biacore S200), 37 C, captured antibody, peptide dilution series, 1:1 Langmuir fit. As to the method: as §1
(§2) Due to very fast on-rate and off-rate with VIP, binding affinity at steady state was used.

The target of a further assay is T2, PACAP27 (human, not fully specified).
T2 peptide: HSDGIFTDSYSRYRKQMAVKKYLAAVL
Described as above. As to the method:
as §1, §2

A further assay concerns the target T3, VIP (human).
T3 construct: also called vasoactive intestinal peptide
T3 peptide: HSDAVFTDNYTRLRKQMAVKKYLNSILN
Description: SPR (Biacore S200), 37 C, captured antibody, steady state affinity. On the procedure: as §1, §2

B1: 917B (antibody, V domains shown)
VH: EVQLVQSGAEVKKPGSSVKVSCKASGGTFSDSYMHWVRQAPGQGLEWMGLIYPIFADTRYAQKFQGRVTITADESTSTAYMELSSLRSEDTAVYYCAIDQDGSFAYWGQGTLVTVSS
VL: DIVMTQSPDSLAVSLGERATINCKSSQSLLDSDGKTYLNWLQQKPGQPPKRLIYLVSTRESGVPDRFSGSGSGTDFTLTISSLQAEDVAVYYCWQGTWFDLTFGGGTKVEIK
notes: Humanized anti-PACAP variant
As to B1, the “IC50 (nM), PACAP-induced cAMP accumulation, CHO-K1 cells, cAMP-Glo” value (“IC50 (nM)” below) with PACAP38 [1] turned out to be 0.19 nM. In the assay with PACAP38 [2], this molecule yielded a dissociation constant Kd of 0.00969 nM, a koff of 0.000122 s⁻¹ and an on-rate constant (kon) of 1.26e+07 M⁻¹ s⁻¹. In the assay with PACAP38 [3], the “PACAP-38 IC50” value was determined as 0.19 nM.

B2: 605C (antibody, V domains shown)
VH: EVQLVQSGAEVKKPGSSVKVSCKASGGTFSDSYMHWVRQAPGQGLEWMGLIYPIFADTRYAQKFQGRVTITADESTSTAYMELSSLRSEDTAVYYCAIDQDGSFAYWGQGTLVTVSS
VL: DIVMTQSPDSLAVSLGERATINCKSSQSLLDADGKTYLNWLQQKPGQPPKRLIYWASTRESGVPDRFSGSGSGTDFTLTISSLQAEDVAVYYCWQGTWFDLTFGGGTKVEIK
For the molecule B2, the equilibrium dissociation constant (Kd) with PACAP38 [4] turned out to be 0.017 nM; with PACAP38 [5], 0.0328 nM; in the assay with PACAP27 it was 0.154 nM; in the assay with PACAP38 [2], 0.017 nM; with VIP, 225 nM. Moreover, the koff in the assay with PACAP38 [4] came to 0.000566 s⁻¹; with PACAP38 [5] it was 0.000565 s⁻¹; with PACAP27, 0.00101 s⁻¹; with PACAP38 [2], 0.000566 s⁻¹. For the same molecule, the kon with PACAP38 [4] is 3.33e+07 M⁻¹ s⁻¹; with PACAP38 [5], 1.72e+07 M⁻¹ s⁻¹; with PACAP27, 6.58e+06 M⁻¹ s⁻¹; in the assay with PACAP38 [2], 3.33e+07 M⁻¹ s⁻¹. Moreover, in the assay with PACAP38 [3], the “PACAP-38 IC50” value was 0.15 nM.

B3: 604C (antibody, V domains shown)
VH: EVQLVQSGAEVKKPGSSVKVSCKASGGTFSDSYMHWVRQAPGQGLEWMGLIYPIFADTRYAQKFQGRVTITADESTSTAYMELSSLRSEDTAVYYCAIDQDGSFAYWGQGTLVTVSS
VL: DIVMTQSPDSLAVSLGERATINCKSSQSLLDSDGKTYLNWLQQKPGQPPKRLIYWASTRESGVPDRFSGSGSGTDFTLTISSLQAEDVAVYYCWQGTWFDLTFGGGTKVEIK
In the assay with PACAP38 [4], B3 gave a Kd of 0.0197 nM, a koff of 0.000319 s⁻¹ and an on-rate constant (kon) of 1.62e+07 M⁻¹ s⁻¹. In the assay with PACAP38 [2], this molecule returned a Kd of 0.0197 nM, a koff of 0.000319 s⁻¹ and a kon of 1.62e+07 M⁻¹ s⁻¹. The “PACAP-38 IC50” value with PACAP38 [3] amounted to 0.16 nM.

B4: 519C (antibody, V domains shown)
VH: EVQLVQSGAEVKKPGSSVKVSCKASGGTFSDLYMHWVRQAPGQGLEWMGLIYPIFADTRYAQKFQGRVTITADESTSTAYMELSSLRSEDTAVYYCAIDQDGSFAYWGQGTLVTVSS
VL: DIVMTQSPDSLAVSLGERATINCKSSQSLLDSDGKTYLNWLQQKPGQPPKRLIYLVSTRESGVPDRFSGSGSGTDFTLTISSLQAEDVAVYYCWQGTWFDLTFGGGTKVEIK
notes: LC S(27E), G29, L50, V51, K53T, L54R, D55E, H93W, P95D
In the assay with PACAP38 [2], B4 came in with a Kd of 0.0218 nM, a dissociation rate constant (koff) of 0.000483 s⁻¹ and a kon of 2.22e+07 M⁻¹ s⁻¹. The “PACAP-38 IC50” value in the assay with PACAP38 [3] turned out to be 0.27 nM.

B5: 919A (antibody, V domains shown)
VH: EVQLVQSGAEVKKPGSSVKVSCKASGGTFSDSYMHWVRQAPGQGLEWMGLIYPIFADTRYAQKFQGRVTITADESTSTAYMELSSLRSEDTAVYYCAIDYDGSFAYWGQGTLVTVSS
VL: DIVMTQSPDSLAVSLGERATINCKSSQSLLDSDGKTYLNWLQQKPGQPPKRLIYLVSTRESGVPDRFSGSGSGTDFTLTISSLQAEDVAVYYCWQGTHFPLTFGGGTKVEIK
notes: Humanized anti-PACAP variant
In the assay with PACAP38 [2], B5 came in with a Kd of 0.0866 nM, a koff of 0.00584 s⁻¹ and a kon of 6.75e+07 M⁻¹ s⁻¹. The “PACAP-38 IC50” value with PACAP38 [3] is 1.3 nM.

B6: 524C (antibody, V domains shown)
VH: EVQLVQSGAEVKKPGSSVKVSCKASGGTFSDSYMHWVRQAPGQGLEWMGLIYPIFADQRYAQKFQGRVTITADESTSTAYMELSSLRSEDTAVYYCAIDQDASFAYWGQGTLVTVSS
VL: DIVMTQSPDSLAVSLGERATINCKSSQSLLDSDGKTYLNWLQQKPGQPPKRLIYLVSTRESGVPDRFSGSGSGTDFTLTISSLQAEDVAVYYCWQGTWFDLTFGGGTKVEIK
notes: as for B4
With B6, in the assay with PACAP38 [2], the Kd was 0.035 nM, the koff is 0.000546 s⁻¹ and the kon stood at 1.56e+07 M⁻¹ s⁻¹. Besides, the “PACAP-38 IC50” value with PACAP38 [3] came to 0.36 nM.

B7: 609C (antibody, V domains shown)
VH: EVQLVQSGAEVKKPGSSVKVSCKASGGTFSDLYMHWVRQAPGQGLEWMGLIYPIFADTRYAQKFQGRVTITADESTSTAYMELSSLRSEDTAVYYCAIDQDGSFAYWGQGTLVTVSS
VL: DIVMTQSPDSLAVSLGERATINCKSSQSLLDADGKTYLNWLQQKPGQPPKRLIYWASTRESGVPDRFSGSGSGTDFTLTISSLQAEDVAVYYCWQGTWFDLTFGGGTKVEIKR
Consider B7, for which, in the assay with PACAP38 [4], the affinity, expressed as Kd, was 0.0228 nM; the off-rate constant (koff) was 0.00118 s⁻¹; the association rate constant (kon) came to 5.17e+07 M⁻¹ s⁻¹. In addition, the “IC50 (nM)” value with PACAP38 [1] came out at 0.83 nM. In the assay with PACAP38 [2], this molecule yielded a dissociation constant Kd of 0.0228 nM, a koff of 0.00118 s⁻¹ and an on-rate constant (kon) of 5.17e+07 M⁻¹ s⁻¹. The “PACAP-38 IC50” value in the assay with PACAP38 [3] was found to be 0.83 nM.

B8: 608C (antibody, V domains shown)
VH: EVQLVQSGAEVKKPGSSVKVSCKASGGTFSDLYMHWVRQAPGQGLEWMGLIYPIFADTRYAQKFQGRVTITADESTSTAYMELSSLRSEDTAVYYCAIDQDGSFAYWGQGTLVTVSS
VL: DIVMTQSPDSLAVSLGERATINCKSSQSLLDSDGKTYLNWLQQKPGQPPKRLIYWASTRESGVPDRFSGSGSGTDFTLTISSLQAEDVAVYYCWQGTWFDLTFGGGTKVEIKR
In the assay with PACAP38 [4], B8 came in with a Kd of 0.0284 nM, an off-rate (koff) of 0.00204 s⁻¹ and an on-rate constant (kon) of 7.19e+07 M⁻¹ s⁻¹. Besides, the “IC50 (nM)” value in the assay with PACAP38 [1] amounted to 0.7 nM. In the assay with PACAP38 [2], this molecule came in with a dissociation constant (Kd) of 0.0284 nM, a koff of 0.00204 s⁻¹ and a kon of 7.19e+07 M⁻¹ s⁻¹. Besides, the “PACAP-38 IC50” value in the assay with PACAP38 [3] is 0.7 nM.

B9: 627C (antibody, V domains shown)
VH: EVQLVQSGAEVKKPGSSVKVSCKASGGTFSDVYMHWVRQAPGQGLEWMGLIYPIFADTRYAQKFQGRVTITADESTSTAYMELSSLRSEDTAVYYCAIDQDGSFAYWGQGTLVTVSS
VL: DIVMTQSPDSLAVSLGERATINCKSSQSLLDSDGKTYLNWLQQKPGQPPKRLIYWASTRESGVPDRFSGSGSGTDFTLTISSLQAEDVAVYYCWQGTWFDLTFGGGTKVEIKR
In the case of B9, in the assay with PACAP38 [4], the Kd was determined as 0.0376 nM, the off-rate (koff) worked out at 0.000789 s⁻¹ and the kon was 2.1e+07 M⁻¹ s⁻¹. Also, in the assay with PACAP38 [1], the “IC50 (nM)” value worked out at 0.4 nM. Also, in the assay with PACAP38 [2], the affinity, expressed as Kd, was 0.0376 nM; the koff came out at 0.000789 s⁻¹; the kon amounted to 2.1e+07 M⁻¹ s⁻¹. In addition, in the assay with PACAP38 [3], the “PACAP-38 IC50” value turned out to be 0.4 nM.

For the origin of these results see patent US20260226154A1 (CEPHALON, published 2026).
